Experimental data taken from patent publication US6942852.

Target: CCR5 chemokine receptor (human) (UniProt P51681)
Assay: cell-based or functional assay

Chain of UniProt P51681 (P51681 whole entry): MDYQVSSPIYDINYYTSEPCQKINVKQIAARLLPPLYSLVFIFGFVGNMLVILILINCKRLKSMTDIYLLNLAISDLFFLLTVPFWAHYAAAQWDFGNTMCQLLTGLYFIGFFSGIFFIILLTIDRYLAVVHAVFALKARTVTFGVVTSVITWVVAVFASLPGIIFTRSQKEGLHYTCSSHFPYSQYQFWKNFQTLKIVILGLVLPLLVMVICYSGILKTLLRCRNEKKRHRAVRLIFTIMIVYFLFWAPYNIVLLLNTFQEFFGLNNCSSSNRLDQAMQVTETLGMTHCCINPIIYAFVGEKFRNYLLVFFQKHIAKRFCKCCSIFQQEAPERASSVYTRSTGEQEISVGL

Substance	potency at preventing infection of PBMC with R5 HIV-1 SF162, relative to AOP-RANTES	inhibition of replication of dual-tropic HIV-1 89.6 in vitro (p24 ELISA)	inhibition of replication of primary dual-tropic HIV-1 isolates from patients in vitro (p24 ELISA)
n-nonanoyl-RANTES (2-68) (from UniProt P13501 25-91) (ligand)	3 fold		
aminooxypentane-RANTES (2-68) (from UniProt P13501 25-91) (ligand)		50%	80 to 90%
